What was measured:
[1] = system: A549 lung cancer cells expressing the FoxM1 phosphorylated point mutant protein; experiment: Migration assay of A549 cells over-expressing FoxM1 phosphorylated point mutant treated with peptides; type: cell-based; conditions: doxycycline 3 μg/ml, 48 hours, no peptide
Description: Moreover, to evaluate the effects and efficacy of the three peptides comprising the FoxM1 non-phosphorylation point mutation on the motility of cancer cells, the cell motility was measured by a migration assay (FIG. 8C). Specifically, 5×10^4 cells of A549 lung cancer cells expressing the FoxM1 phosphorylated point mutant protein were seeded into an 8.0 μm, 24-well insert. Culture medium containing 10% serum (FBS) was added to a 24-well plate, and then the insert was placed into the plate. 0.5 ml of RPMI 1640 (10% FBS) containing 3 μg/ml of doxycycline was dispensed into the plate, and each of the three kinds of 5 μM of FoxM1 non-phosphorylated point mutant peptides was simultaneously treated. […] After 5 minutes, the plate was washed with 1×PBS five times, and the stained intensity was measured using the Odyssey infrared imaging system. […]
Specifically, 5×10^4 cells of A549 lung cancer cells expressing the FoxM1 phosphorylated point mutant protein were seeded in an 8.0 μm, 24-well insert, and the inserts were placed in a 24-well plate after medium with 10% fetal bovine serum (FBS) was dispensed on the 24-well plate. […] After 5 minutes, the plate was washed with 1×PBS five times, and the stained intensity was measured using the Odyssey infrared imaging system. […]

lung tissues = experiment: EMT marker and PD-L1 protein levels in lysed lung tissue of injected mice; type: in vivo
Description: Next, when the lung tissues were lysed and the protein levels of epithelial-mesenchymal transition markers were measured, the protein levels of the mesenchymal marker N-cadherin increased in the FoxM1 phosphorylated point mutant experimental group, while the levels of E-cadherin decreased. In addition, the expression of PD-L1, which was known to be involved in immune evasion and to enhance the tumorigenic potential of cancer cells, was also examined in each experimental group. […] Moreover, the consistent results were confirmed not only at the protein levels but also at the mRNA levels (FIG. 5E).

A549 cells = experiment: ELISA of TGFB1 and VEGFA proteins in A549 culture medium; type: cell-based; conditions: medium cultured 48 h
Description: In addition, after co-culturing of human monocyte THP-1 cells and cell groups over-expressing FoxM1 point mutations for 48 hours under the conditions where the previous experiments were performed, the mRNA expression levels of M2d-inducing factors IL4, IL6, IL10, and VEGFA in A549 cells expressing FoxM1 S25E were analyzed. […] The amounts of TGFB1 and VEGFA proteins in the medium cultured for 48 h with A549 cells (4×10^4 cells/ml) expressing FoxM1 variants were measured by ELISA.

B1: S25E: FoxM1 phosphorylated point mutant of the S25 residue, expressed by lentivirus in A549 cells (protein, listed as Homo sapiens)
chain: MKTSPRRPLILKRRRLPLPVQNAPEETSEEEPKRSPAQQESNQAEASKEVAESNSCKFPAGIKIINHPTMPNTQVVAIPNNANIHSIITALTAKGKESGSSGPNKFILISCGGAPTQPPGLRPQTQTSYDAKRTEVTLETLGPKPAARDVNLPRPPGALCEQKRETCDGEAAGCTINNSLSNIQWLRKMSSDGLGSRSIKQEMEEKENCHLEQRQVKVEEPSRPSASWQNSVSERPPYSYMAMIQFAINSTERKRMTLKDIYTWIEDHFPYFKHIAKPGWKNSIRHNLSLHDMFVRETSANGKVSFWTIHPSANRYLTLDQVFKQQQKRPNPELRRNMTIKTELPLGARRKMKPLLPRVSSYLVPIQFPVNQSLVLQPSVKVPLPLAASLMSSELARHSKRVRIAPKVLLAEEGIAPLSSAGPGKEEKLLFGEGFSPLLPVQTIKEEEIQPGEEMPHLARPIKVESPPLEEWPSPAPSFKEESSHSWEDSSQSPTPRPKKSYSGLRSPTRCVSEMLVIQHRERRERSRSRRKQHLLPPCVDEPELLFSEGPSTSRWAAELPFPADSSDPASQLSYSQEVGGPFKTPIKETLPISSTPSKSVLPRTPESWRLTPPAKVGGLDFSPVQTSQGASDPLPDPLGLMDLSTTPLQSAPPLESPQRLLSSEPLDLISVPFGNSSPSDIDVPKPGSPEPQVSGLAANRSLTEGLVLDTMNDSLSKILLDISFPGLDEDPLGPDNINWSQFIPELQ
- stained intensity (migration) of over-expressed group compared to the control group [1]: 5 folds
- expression of PD-L1 in lung tissue (lung tissues): elevated
- protein level of E-cadherin in lung tissue (lung tissues): decreased
- protein level of N-cadherin in lung tissue (lung tissues): increased
- amount of TGFB1 protein in medium, compared to Mock (A549 cells): 5 folds
- amount of VEGFA protein in medium, compared to Mock (A549 cells): 4 folds

Reference: patent US20250340881A1, “PHARMACEUTICAL COMPOSITION FOR TREATING CANCER COMPRISING FOXM1 MUTANT OR FOXM1 SHRNA” (Industry-University Cooperation Foundation Hanyang …, priority 2022, published 2025)
